Experimental data reported in IntAct's records for PubMed 18052611.

B1: Protein matrimony (Drosophila melanogaster (Fruit fly)), Q23973 (parent)
chain: MENSRTPTNKTKITLNRTPTLKERRWNTLKVNTSNVRCSTPIFGNFRSPNLSPIENMGTKGKSPVSPMRFATFKKVPTKVHPKQQQQQQHQHCHRTQLKPPPFVLPKPQEEIIEPEREIKSCSSPDTCSDDSNMETSLALESRRRSIKASNHSYVVNHAANVEQILMHMGLENYVTNFEEAHIDLVELASLERADLVKIGLNTDEDCNRIMDVLHTL
partner: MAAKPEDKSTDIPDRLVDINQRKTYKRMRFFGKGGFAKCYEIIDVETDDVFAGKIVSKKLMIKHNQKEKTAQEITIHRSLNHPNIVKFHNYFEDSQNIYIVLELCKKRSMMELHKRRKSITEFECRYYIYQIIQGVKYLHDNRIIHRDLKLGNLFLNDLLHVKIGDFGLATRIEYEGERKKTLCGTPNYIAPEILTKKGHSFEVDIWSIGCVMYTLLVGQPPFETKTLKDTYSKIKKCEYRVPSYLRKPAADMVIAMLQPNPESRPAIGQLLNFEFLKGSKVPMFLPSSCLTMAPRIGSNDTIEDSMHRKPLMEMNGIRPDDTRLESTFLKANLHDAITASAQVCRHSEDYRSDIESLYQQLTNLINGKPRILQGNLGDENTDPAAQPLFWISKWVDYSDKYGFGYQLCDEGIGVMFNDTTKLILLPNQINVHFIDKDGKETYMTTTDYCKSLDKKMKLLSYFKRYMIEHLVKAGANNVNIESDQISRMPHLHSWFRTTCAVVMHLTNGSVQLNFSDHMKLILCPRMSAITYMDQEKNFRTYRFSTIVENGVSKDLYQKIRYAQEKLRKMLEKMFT

Variants of: B1
Conditions: with polo_drome polo

| effect of a mutation on the interaction | Variant |
| --- | --- |
| disrupting interaction | T40A |
